The record followed here is patent US20030148956A1 (PROCTER AND GAMBLE, published 2003).

Assay [1] concerns the target T1, corticotropin releasing factor 2 receptor.
T1 sequence (Q13324 whole entry, species assumed, looked up): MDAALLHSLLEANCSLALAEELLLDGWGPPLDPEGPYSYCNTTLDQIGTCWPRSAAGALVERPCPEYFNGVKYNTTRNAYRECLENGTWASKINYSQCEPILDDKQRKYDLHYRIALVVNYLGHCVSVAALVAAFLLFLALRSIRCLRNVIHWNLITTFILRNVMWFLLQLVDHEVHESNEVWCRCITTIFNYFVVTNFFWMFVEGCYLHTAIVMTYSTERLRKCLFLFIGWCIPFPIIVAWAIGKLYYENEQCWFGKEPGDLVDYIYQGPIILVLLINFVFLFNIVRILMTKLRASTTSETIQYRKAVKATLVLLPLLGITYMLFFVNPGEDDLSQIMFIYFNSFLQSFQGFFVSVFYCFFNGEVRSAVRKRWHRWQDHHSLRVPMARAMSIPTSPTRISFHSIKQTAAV
Description: cell-based or functional assay.

Assay [2] has as its target corticotropin releasing factor 1 receptor. Nature of the assay: cell-based or functional assay.

Ends that are not written are not given here.

In the case of IVLSLDVPIGLLQKVIEIEKQEKEKQQATTNARILARV-NH2 [SEQ ID NO 300], in assay [1], the “CRF2R EC50” value stood at 17.1 nM and the “CRF2R Emax %” value was 100%. In assay [2], the “CRF1R EC50” value stood at 1000 nM and the “CRF1R Emax %” value turned out to be 7.95%.

ZGPPISIDLPQILLRKVIEIEKQEKEKQQAANNRLLLDTI (C-terminal amide) [SEQ ID NO 293]: in assay [1], the “CRF2R EC50” value stood at 40.3 nM and the “CRF2R Emax %” value is 87%. Besides, in assay [2], the “CRF1R EC50” value was 520 nM and the “CRF1R Emax %” value is 95.3%.

Take ZGPPISIDLPAALLRKMIEIEKQEKEKQQAANNRLLLDTI (not fully specified; C-terminal amide) [SEQ ID NO 303]: in assay [1], the “CRF2R EC50” value was 27.2 nM and the “CRF2R Emax %” value came to 100%. In addition, in assay [2], the “CRF1R EC50” value turned out to be 582 nM and the “CRF1R Emax %” value was 100%.

For ZGPPISIDLPFALLRKMIEIEKQEKEKQQAANNRLLLDTI (not fully specified; C-terminal amide) [SEQ ID NO 307], in assay [1], the “CRF2R EC50” value was 5.82 nM and the “CRF2R Emax %” value is 96.5%. Moreover, in assay [2], the “CRF1R EC50” value was 78.4 nM and the “CRF1R Emax %” value worked out at 92.7%.

ZGPPISIDLPYWLLRKVIEIEKQEKEKQQAANNALLLDTI (C-terminal amide) [SEQ ID NO 311]: in assay [1], the “CRF2R EC50” value was determined as 11.7 nM and the “CRF2R Emax %” value is 100%. Besides, in assay [2], the “CRF1R EC50” value came to 1000 nM and the “CRF1R Emax %” value worked out at 29.7%.

ZGPPISIDLPFFLLRKVIEIEKQEKEKQQAANNALLLDTI (C-terminal amide) [SEQ ID NO 316]: in assay [1], the “CRF2R EC50” value was determined as 10.2 nM and the “CRF2R Emax %” value stood at 94.5%. Besides, in assay [2], the “CRF1R EC50” value came out at 222 nM and the “CRF1R Emax %” value came out at 92.3%.

For the molecule ZGPPISIDLPHALLRKMIEIEKQEKEKQQAANNRLLLDTI (not fully specified; C-terminal amide) [SEQ ID NO 304], in assay [1], the “CRF2R EC50” value came to 19.3 nM and the “CRF2R Emax %” value worked out at 92.5%. Besides, in assay [2], the “CRF1R EC50” value was found to be 116 nM and the “CRF1R Emax %” value is 100%.

On to ZGPPISIDLPVALLRKMIEIEKQEKEKQQAANNRLLLDTI (not fully specified; C-terminal amide) [SEQ ID NO 305], for which, in assay [1], the “CRF2R EC50” value worked out at 35.5 nM and the “CRF2R Emax %” value is 95.2%. Moreover, in assay [2], the “CRF1R EC50” value amounted to 1000 nM and the “CRF1R Emax %” value is 59.5%.

Turning to ZGPPISIDLPTALLRKMIEIEKQEKEKQQAANNRLLLDTI (not fully specified; C-terminal amide) [SEQ ID NO 301], in assay [1], the “CRF2R EC50” value is 50.5 nM and the “CRF2R Emax %” value came to 88.4%. In assay [2], the “CRF1R EC50” value is 690 nM and the “CRF1R Emax %” value was determined as 84.1%.

On to ZGPPISIDLPYHLLRKVIEIEKQEKEKQQAANNALLLDTI (C-terminal amide) [SEQ ID NO 312], for which, in assay [1], the “CRF2R EC50” value came to 14.1 nM and the “CRF2R Emax %” value was 95%. In assay [2], the “CRF1R EC50” value turned out to be 870 nM and the “CRF1R Emax %” value came out at 62%.

For the molecule ZGPPISIDLPYALLRKMIEIEKQEKEKQQAANNRLLLDTI (not fully specified; C-terminal amide) [SEQ ID NO 309], in assay [1], the “CRF2R EC50” value stood at 5.55 nM and the “CRF2R Emax %” value is 99.9%. For the same molecule, in assay [2], the “CRF1R EC50” value turned out to be 108 nM and the “CRF1R Emax %” value stood at 96.3%.

Regarding ZGPPISIDLPLALLRKMIEIEKQEKEKQQAANNRLLLDTI (not fully specified; C-terminal amide) [SEQ ID NO 308], in assay [1], the “CRF2R EC50” value was determined as 3.3 nM and the “CRF2R Emax %” value was determined as 72.8%. For the same molecule, in assay [2], the “CRF1R EC50” value amounted to 63.5 nM and the “CRF1R Emax %” value worked out at 100%.

Take ZGPPISIDLPQALLRKMIEIEKQEKEKQQAANNRLLLDTI (not fully specified; C-terminal amide) [SEQ ID NO 302]: in assay [1], the “CRF2R EC50” value was found to be 36.2 nM and the “CRF2R Emax %” value was determined as 100%. Besides, in assay [2], the “CRF1R EC50” value came out at 366 nM and the “CRF1R Emax %” value came out at 100%.

Turning to ZGPPISIDLPIILLRKMIEIEKQEKEKQQAANNARLLARI (C-terminal amide) [SEQ ID NO 290], in assay [1], the “CRF2R EC50” value stood at 100 nM and the “CRF2R Emax %” value stood at 100%. Further, in assay [2], the “CRF1R EC50” value amounted to 1000 nM and the “CRF1R Emax %” value was determined as 6.4%.

With ZGPPISIDLPYHLLRKMIEIEKQEKEKQQAANNALLLDTI (C-terminal amide) [SEQ ID NO 314], in assay [1], the “CRF2R EC50” value worked out at 10.3 nM and the “CRF2R Emax %” value worked out at 99.8%. In assay [2], the “CRF1R EC50” value was 978 nM and the “CRF1R Emax %” value came out at 82.4%.

Regarding ZGPPISIDLPIALLRKMIEIEKQEKEKQQAANNRLLLDTI (not fully specified; C-terminal amide) [SEQ ID NO 306], in assay [1], the “CRF2R EC50” value amounted to 27.6 nM and the “CRF2R Emax %” value came out at 100%. Further, in assay [2], the “CRF1R EC50” value worked out at 608 nM and the “CRF1R Emax %” value came out at 97.7%.

ZGPPISIDLPFFLLRKMIEIEKQEKEKQQAANNALLLATI (C-terminal amide) [SEQ ID NO 319]: in assay [1], the “CRF2R EC50” value is 8.5 nM and the “CRF2R Emax %” value worked out at 95%. In assay [2], the “CRF1R EC50” value was determined as 106 nM and the “CRF1R Emax %” value was 88.3%.

Consider ZGPPISIDLPIILLRKVIEIEKQEKEKQQAANNRLLLDTI (C-terminal amide) [SEQ ID NO 297], for which, in assay [1], the “CRF2R EC50” value is 100 nM and the “CRF2R Emax %” value was 88.3%. In addition, in assay [2], the “CRF1R EC50” value was found to be 1000 nM and the “CRF1R Emax %” value amounted to 27.2%.

Turning to ZGPPISIDLPTWLLRKMIEIEKQEKEKQQAANNARLLARI (C-terminal amide) [SEQ ID NO 292], in assay [1], the “CRF2R EC50” value came out at 100 nM and the “CRF2R Emax %” value is 86.1%. Further, in assay [2], the “CRF1R EC50” value was determined as 1000 nM and the “CRF1R Emax %” value amounted to 7%.

For the molecule ZGPPISIDLPQILLRKVIEIEKQEKEKQQAANNALLLATI (C-terminal amide) [SEQ ID NO 299], in assay [1], the “CRF2R EC50” value amounted to 46.4 nM and the “CRF2R Emax %” value was 71.5%. In assay [2], the “CRF1R EC50” value is 1000 nM and the “CRF1R Emax %” value came out at 10.2%.

On to ZGPPISIDLPFFLLRKMIEIEKQEKEKQQAANNALLLDTI (C-terminal amide) [SEQ ID NO 318], for which, in assay [1], the “CRF2R EC50” value is 9.95 nM and the “CRF2R Emax %” value amounted to 95.4%. Moreover, in assay [2], the “CRF1R EC50” value was 134 nM and the “CRF1R Emax %” value came to 92.8%.

In the case of ZGPPISIDLPFFLLRKVIEIEKQEKEKQQAANNALLLATI (C-terminal amide) [SEQ ID NO 317], in assay [1], the “CRF2R EC50” value amounted to 9.3 nM and the “CRF2R Emax %” value was found to be 88.3%. In addition, in assay [2], the “CRF1R EC50” value is 188 nM and the “CRF1R Emax %” value worked out at 100%.

On to ZGPPISIDLPYHLLRKVIEIEKQEKEKQQAANNALLLATI (C-terminal amide) [SEQ ID NO 313], for which, in assay [1], the “CRF2R EC50” value came out at 11.1 nM and the “CRF2R Emax %” value was found to be 95%. Also, in assay [2], the “CRF1R EC50” value is 704 nM and the “CRF1R Emax %” value worked out at 87.1%.

As to ZGPPISIDLPQILLRKVIEIEKQEKEKQQAANNARLLARI (C-terminal amide) [SEQ ID NO 294], in assay [1], the “CRF2R EC50” value is 100 nM and the “CRF2R Emax %” value was determined as 100%. Further, in assay [2], the “CRF1R EC50” value was found to be 1000 nM and the “CRF1R Emax %” value is 13.6%.

ZGPPISIDLPIFLLRKMIEIEKQEKEKQQAANNALLLATI (C-terminal amide) [SEQ ID NO 298]: in assay [1], the “CRF2R EC50” value was found to be 82 nM and the “CRF2R Emax %” value was found to be 98.8%. In assay [2], the “CRF1R EC50” value came to 1000 nM and the “CRF1R Emax %” value is 20.1%.

Take ZGPPISIDLPIILLRKVIEIEKQEKEKQQAANNARLLARI (C-terminal amide) [SEQ ID NO 295]: in assay [1], the “CRF2R EC50” value came out at 55 nM and the “CRF2R Emax %” value worked out at 67.6%. In addition, in assay [2], the “CRF1R EC50” value worked out at 1000 nM and the “CRF1R Emax %” value is 5.3%.

For ZGPPISIDLPYWLLRKMIEIEKQEKEKQQAANNALLLDTI (C-terminal amide) [SEQ ID NO 310], in assay [1], the “CRF2R EC50” value amounted to 8.7 nM and the “CRF2R Emax %” value is 87.5%. Besides, in assay [2], the “CRF1R EC50” value came to 1000 nM and the “CRF1R Emax %” value amounted to 45.3%.

ZGPPISIDLPTWLLRKVIEIEKQEKEKQQAANNARLLARI (C-terminal amide) [SEQ ID NO 291]: in assay [1], the “CRF2R EC50” value was 100 nM and the “CRF2R Emax %” value turned out to be 63.8%. Also, in assay [2], the “CRF1R EC50” value is 1000 nM and the “CRF1R Emax %” value was found to be 4.75%.

With HHHHHHIVLSLDVPIGLLQILLEQARARAAREQATTNARILARN-NH2 [SEQ ID NO 296], in assay [1], the “CRF2R EC50” value came to 6.66 nM and the “CRF2R Emax %” value is 65%. Further, in assay [2], the “CRF1R EC50” value amounted to 100 nM and the “CRF1R Emax %” value was 4%.

With ZGPPISIDLPYHLLRKMIEIEKQEKEKQQAANNALLLAT (C-terminal amide) [SEQ ID NO 315], in assay [1], the “CRF2R EC50” value worked out at 9.35 nM and the “CRF2R Emax %” value was found to be 81.7%. In addition, in assay [2], the “CRF1R EC50” value was 454 nM and the “CRF1R Emax %” value is 100%.
